What all share (assay): FP; ITC: 10 mM HEPES pH 8.0, 100 mM NaCl, 18 C; EMSA: 20 mM HEPES pH 7.5, 100 mM NaCl, 8% glycerol, 1 mM DTT, on ice; pull-down: 20 mM HEPES-NaOH pH 8.0, 100 mM NaC
Background: In EMSA bound probe runs differently from free probe, usually more slowly.

One data set addresses T1, SRA-Spacer-642 (human, UniProt Q96T88 414-642).
T1 sequence: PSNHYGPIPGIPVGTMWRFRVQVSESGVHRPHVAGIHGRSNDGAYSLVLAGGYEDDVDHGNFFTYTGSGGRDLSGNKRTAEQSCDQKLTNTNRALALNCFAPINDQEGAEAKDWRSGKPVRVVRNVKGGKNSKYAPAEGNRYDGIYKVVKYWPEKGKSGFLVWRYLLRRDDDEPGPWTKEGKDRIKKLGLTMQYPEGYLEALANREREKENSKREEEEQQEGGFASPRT

The next data set concerns the target T2, UHRF1 full-length (human, UniProt Q96T88 1-793).
T2 sequence: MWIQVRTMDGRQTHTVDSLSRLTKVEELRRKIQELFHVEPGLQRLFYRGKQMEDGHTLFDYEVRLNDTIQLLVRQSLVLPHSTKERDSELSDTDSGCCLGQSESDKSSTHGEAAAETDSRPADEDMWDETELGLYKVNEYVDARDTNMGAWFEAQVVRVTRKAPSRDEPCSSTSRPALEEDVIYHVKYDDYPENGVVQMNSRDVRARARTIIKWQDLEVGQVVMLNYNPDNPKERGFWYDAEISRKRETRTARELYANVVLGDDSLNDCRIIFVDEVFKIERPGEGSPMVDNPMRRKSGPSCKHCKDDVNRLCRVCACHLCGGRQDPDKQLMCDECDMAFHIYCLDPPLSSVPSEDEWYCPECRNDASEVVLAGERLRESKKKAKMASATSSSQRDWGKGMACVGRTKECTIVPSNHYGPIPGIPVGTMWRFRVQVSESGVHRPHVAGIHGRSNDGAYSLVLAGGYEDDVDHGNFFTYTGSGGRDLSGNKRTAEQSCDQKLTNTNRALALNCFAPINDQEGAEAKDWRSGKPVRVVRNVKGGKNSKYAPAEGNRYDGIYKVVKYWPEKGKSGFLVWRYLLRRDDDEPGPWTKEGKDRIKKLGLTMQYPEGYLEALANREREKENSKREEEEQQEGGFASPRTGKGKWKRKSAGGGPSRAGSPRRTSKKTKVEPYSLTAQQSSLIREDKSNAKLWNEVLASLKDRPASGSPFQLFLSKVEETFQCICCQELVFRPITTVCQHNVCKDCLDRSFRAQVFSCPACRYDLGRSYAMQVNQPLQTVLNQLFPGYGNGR

Another data set concerns the target T3, UHRF1 deltaTTD (human, UniProt Q96T88 1-793, del134-285).
T3 sequence: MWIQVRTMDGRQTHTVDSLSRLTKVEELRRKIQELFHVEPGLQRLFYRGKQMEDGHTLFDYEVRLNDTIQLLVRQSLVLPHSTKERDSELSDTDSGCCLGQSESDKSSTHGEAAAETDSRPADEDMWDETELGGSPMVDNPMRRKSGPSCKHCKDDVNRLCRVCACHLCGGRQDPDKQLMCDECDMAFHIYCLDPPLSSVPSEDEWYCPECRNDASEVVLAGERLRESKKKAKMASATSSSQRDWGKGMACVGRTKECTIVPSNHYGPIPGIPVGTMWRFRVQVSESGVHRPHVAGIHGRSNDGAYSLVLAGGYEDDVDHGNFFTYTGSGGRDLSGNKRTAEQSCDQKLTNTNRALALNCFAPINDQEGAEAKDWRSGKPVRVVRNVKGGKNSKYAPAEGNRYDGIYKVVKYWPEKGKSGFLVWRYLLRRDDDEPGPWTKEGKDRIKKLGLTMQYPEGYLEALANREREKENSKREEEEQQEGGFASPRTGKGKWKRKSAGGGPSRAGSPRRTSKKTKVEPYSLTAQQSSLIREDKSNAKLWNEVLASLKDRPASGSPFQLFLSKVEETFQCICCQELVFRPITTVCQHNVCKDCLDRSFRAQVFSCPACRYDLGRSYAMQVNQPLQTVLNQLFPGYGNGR

The target in the next data set is T4, SRA-Spacer-652 (human, UniProt Q96T88 414-652).
T4 sequence: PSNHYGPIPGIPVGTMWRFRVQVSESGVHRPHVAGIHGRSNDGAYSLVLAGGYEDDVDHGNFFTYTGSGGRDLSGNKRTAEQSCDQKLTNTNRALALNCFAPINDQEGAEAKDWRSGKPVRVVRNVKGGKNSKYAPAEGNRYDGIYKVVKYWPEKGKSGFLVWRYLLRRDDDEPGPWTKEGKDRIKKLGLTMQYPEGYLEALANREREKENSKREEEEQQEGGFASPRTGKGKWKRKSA

B1: FAM-12bp-HM-DNA (dsDNA)
DNA 1: CCATGCGCTGAC
DNA 2: GTCAGCGCATGG
modifications: 5-methyl-dC at position 6 of strand 2 (GTCAGXGCATGG)
For the molecule B1, the Kd (as a rule, the constant that tells how readily two partners part at equilibrium) in the data set with SRA-Spacer-642 was 6110 ± 1150 nM; with UHRF1 full-length, 350 ± 70 nM; in the data set with UHRF1 deltaTTD, 490 ± 80 nM; with SRA-Spacer-652, 1870 ± 330 nM.

(Values after article PMC4822050.)
